Assay results as given in US20170247441A1 (Hoffmann-La Roche, published 2017).

T1: ANG2 (R&D Systems, Cat#623-CF) (human, UniProt O15123 19-496)
T1 sequence: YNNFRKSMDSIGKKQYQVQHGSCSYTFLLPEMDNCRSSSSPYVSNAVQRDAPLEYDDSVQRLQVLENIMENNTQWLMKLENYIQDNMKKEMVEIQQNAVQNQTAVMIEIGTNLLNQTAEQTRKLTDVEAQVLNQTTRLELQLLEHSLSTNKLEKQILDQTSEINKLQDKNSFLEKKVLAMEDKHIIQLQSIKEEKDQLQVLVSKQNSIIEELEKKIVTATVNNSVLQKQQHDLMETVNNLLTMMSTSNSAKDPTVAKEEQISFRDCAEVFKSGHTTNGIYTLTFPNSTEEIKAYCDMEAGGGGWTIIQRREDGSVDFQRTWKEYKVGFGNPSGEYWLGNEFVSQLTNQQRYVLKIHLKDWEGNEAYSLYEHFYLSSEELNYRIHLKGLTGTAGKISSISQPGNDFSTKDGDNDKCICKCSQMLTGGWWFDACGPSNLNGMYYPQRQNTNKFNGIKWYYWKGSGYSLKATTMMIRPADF

T2: human ANG2-RBD-Fc-region fusion (human, UniProt O15123 275-496, limits assumed)
T2 construct: not shown: Fc-region
T2 sequence: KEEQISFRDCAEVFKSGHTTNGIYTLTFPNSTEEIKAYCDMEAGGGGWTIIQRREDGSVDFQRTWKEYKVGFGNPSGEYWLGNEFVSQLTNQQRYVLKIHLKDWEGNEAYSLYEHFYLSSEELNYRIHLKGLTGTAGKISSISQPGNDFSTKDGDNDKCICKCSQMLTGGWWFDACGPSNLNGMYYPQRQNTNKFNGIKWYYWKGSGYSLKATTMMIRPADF


Columns and labels:
[1] = biological target: T1, ANG2 (R&D Systems, Cat#623-CF); assay: cell-based or functional assay
[2] = biological target: T3, cynomolgus ANG2-RBD-Fc-region fusion (cynomolgus); assay: SPR, cynomolgus ANG2-RBD-Fc captured, 1:1 model
T3 construct: domain: RBD
Protocol: (§1) HBS-N (10 mM HEPES, 150 mM NaCl pH 7.4, GE Healthcare) was used as running buffer during the immobilization procedure. For the following kinetic characterization, sample and running buffer was HBS-P (10 mM HEPES, 150 mM NaCl pH 7.4, 0.05% Surfactant P20; GE Healthcare). The flow cell was set to 25° C.—and the sample block was set to 12° C.—and primed with running buffer twice prior to kinetic characterization.
(§2) Association was measured by injection of the Cross-Fabs in various concentrations in solution for 90 sec. at a flow rate of 90 μl/min starting with 300 nM in serial 1:3 dilutions. The dissociation phase was monitored for up to 600 sec. and triggered by switching from the sample solution to running buffer. All surfaces were regenerated by 60 sec. washing with a 3 M MgCl₂ solution at a flow rate of 5 μl/min. Bulk refractive index differences were corrected by subtracting the response obtained from an anti-human IgG antibody (Fc) surface. Blank injections were also subtracted (=double referencing). For calculation of KD and other kinetic parameters the Langmuir 1:1 model was used.

[3] = biological target: T2, human ANG2-RBD-Fc-region fusion; assay: SPR, human ANG2-RBD-Fc captured, 1:1 model
[4] = biological target: T2, human ANG2-RBD-Fc-region fusion; assay: SPR, human ANG2-RBD-Fc captured, 1:1 model; remark: listed apart in the source
Protocol: as §1, §2

[5] = biological target: T2, human ANG2-RBD-Fc-region fusion; assay: SPR, human ANG2; bivalent CrossMab, avidity
[6] = biological target: T2, human ANG2-RBD-Fc-region fusion; assay: SPR, human ANG2; bivalent CrossMab, avidity; remark: listed apart in the source

Binder | relative biological activity [%] [1] [%] | Kd [2] [nM] | koff [2] [s⁻¹] | kon [2] [M⁻¹ s⁻¹] | t½ [2] [min] | koff [3] [s⁻¹] | kon [3] [M⁻¹ s⁻¹] | t1/2 [3] [min] | koff [4] [s⁻¹] | kon [4] [M⁻¹ s⁻¹] | t½ [4] [min] | koff [5] [s⁻¹] | kon [5] [M⁻¹ s⁻¹] | t1/2 (S) [5] [min] | koff [6] [s⁻¹] | kon [6] [M⁻¹ s⁻¹]
XAng2-0099 (antibody, CrossMab CL-CH1, valency for ANG2 2; differences VH: S100dP, G100jA, T28N, T30A; VL: wt) heavy: not shown light: SYVLTQPPSVSVAPGQTARITCGGNNIGSKSVHWYQQKPGQAPVLVVYDDSDRPSGIPERFSGSNSGNTATLTISRVEAGDEADYYCQVWDSSSDHWVFGGGTKLTVLSSASTKGPSVFPLAPSSKSTSGGTAALGCLVKDYFPEPVTVSWNSGALTSGVHTFPAVLQSSGLYSLSSVVTVPSSSLGTQTYICNVNHKPSNTKVDKKVEPKSC | – | – | – | – | – | – | – | – | – | – | – | 0.00011 | 2.61e+07 | 105 | 0.00011 | 2.61e+07
XAng2-0101 (antibody, CrossMab CL-CH1, valency for ANG2 2; differences VH: S100dP, G100jA, T28N, T30A, D100bE; VL: D50T) heavy: not shown light: SYVLTQPPSVSVAPGQTARITCGGNNIGSKSVHWYQQKPGQAPVLVVYDTSDRPSGIPERFSGSNSGNTATLTISRVEAGDEADYYCQVWDSSSDHWVFGGGTKLTVLSSASTKGPSVFPLAPSSKSTSGGTAALGCLVKDYFPEPVTVSWNSGALTSGVHTFPAVLQSSGLYSLSSVVTVPSSSLGTQTYICNVNHKPSNTKVDKKVEPKSC | – | – | – | – | – | – | – | – | – | – | – | 0.00012 | 1.83e+07 | 96.2 | 0.00012 | 1.83e+07
XAng2-0075 (Fab, CrossFab CL-CH1, valency 1; differences VH: S100dP, G100jA, T28N, T30A, D100bS; VL: D50T) heavy: not shown light: SYVLTQPPSVSVAPGQTARITCGGNNIGSKSVHWYQQKPGQAPVLVVYDTSDRPSGIPERFSGSNSGNTATLTISRVEAGDEADYYCQVWDSSSDHWVFGGGTKLTVLSSASTKGPSVFPLAPSSKSTSGGTAALGCLVKDYFPEPVTVSWNSGALTSGVHTFPAVLQSSGLYSLSSVVTVPSSSLGTQTYICNVNHKPSNTKVDKKVEPKSC | 128 | 24 | 0.0325 | 1.34e+06 | 0.35 | 0.031 | 2.22e+06 | 0.367 | 0.031 | 2.22e+06 | 0.367 | – | – | – | – | –

Now from value to binder:

relative biological activity [%] [1] [%] | Kd [2] [nM] | koff [2] [s⁻¹] | kon [2] [M⁻¹ s⁻¹] | t½ [2] [min] | koff [3] [s⁻¹] | kon [3] [M⁻¹ s⁻¹] | t1/2 [3] [min] | koff [4] [s⁻¹] | kon [4] [M⁻¹ s⁻¹] | t½ [4] [min] | koff [5] [s⁻¹] | kon [5] [M⁻¹ s⁻¹] | t1/2 (S) [5] [min] | koff [6] [s⁻¹] | kon [6] [M⁻¹ s⁻¹] | Binder
838 | 2 | 0.0036 | 2.14e+06 | 3.22 | 0.00317 | 3.85e+06 | 3.65 | 0.00317 | 3.85e+06 | 3.65 | – | – | – | – | – | XAng2-0041 (Fab, CrossFab CL-CH1, valency 1; differences VH: S100dP, G100jA, T28N, T30A; VL: wt) heavy: not shown light: SYVLTQPPSVSVAPGQTARITCGGNNIGSKSVHWYQQKPGQAPVLVVYDDSDRPSGIPERFSGSNSGNTATLTISRVEAGDEADYYCQVWDSSSDHWVFGGGTKLTVLSSASTKGPSVFPLAPSSKSTSGGTAALGCLVKDYFPEPVTVSWNSGALTSGVHTFPAVLQSSGLYSLSSVVTVPSSSLGTQTYICNVNHKPSNTKVDKKVEPKSC
– | – | – | – | – | – | – | – | – | – | – | 0.000167 | 2.06e+07 | 69.3 | 0.000167 | 2.06e+07 | XAng2-0100 (antibody, CrossMab CL-CH1, valency for ANG2 2; differences VH: S100dP, G100jA, T28N, T30A; VL: D50T) heavy: not shown light: SYVLTQPPSVSVAPGQTARITCGGNNIGSKSVHWYQQKPGQAPVLVVYDTSDRPSGIPERFSGSNSGNTATLTISRVEAGDEADYYCQVWDSSSDHWVFGGGTKLTVLSSASTKGPSVFPLAPSSKSTSGGTAALGCLVKDYFPEPVTVSWNSGALTSGVHTFPAVLQSSGLYSLSSVVTVPSSSLGTQTYICNVNHKPSNTKVDKKVEPKSC
706 | 2 | 0.00308 | 2.02e+06 | 3.75 | 0.00253 | 2.16e+06 | 4.57 | 0.00253 | 2.16e+06 | 4.57 | – | – | – | – | – | XAng2-0090 (Fab, CrossFab CL-CH1, valency 1; differences VH: S100dP, G100jA, T28N, T30A; VL: D50T) heavy: not shown light: SYVLTQPPSVSVAPGQTARITCGGNNIGSKSVHWYQQKPGQAPVLVVYDTSDRPSGIPERFSGSNSGNTATLTISRVEAGDEADYYCQVWDSSSDHWVFGGGTKLTVLSSASTKGPSVFPLAPSSKSTSGGTAALGCLVKDYFPEPVTVSWNSGALTSGVHTFPAVLQSSGLYSLSSVVTVPSSSLGTQTYICNVNHKPSNTKVDKKVEPKSC
